Experiments:
CAP256 wk34c80 = CAP256 wk34c80 (HIV-1); test: cell-based or functional assay
[1] = biological target: HIV-1 Env of strain WITO.33 (Env-pseudotyped virus) (HIV-1); test: cell-based or functional assay

Binder | % neutralization, single point, Env-pseudotyped virus on TZM-bl (CAP256 wk34c80) | % neutralization, single point, Env-pseudotyped virus on TZM-bl [1]
CAP256V2LS-VRC01-5 (bispecific antibody) heavy chain: not shown light chain (VRC01 scFv, linker, CAP256V2LS LC): QVQLVQSGGQMKKPGESMRISCRASGYEFIDCTLNWIRLAPGKRPEWMGWLKPRGGAVNYARPLQGRVTMTRDVYSDTAFLELRSLTVDDTAVYFCTRGKNCDYNWDFEHWGRGTPVIVSSGGGGSGGGGSGGGGSLTQSPGTLSLSPGETAIISCRTSQYGSLAWYQQRPGQAPRLVIYSGSTRAAGIPDRFSGSRWGPDYNLTISNLESGDFGVYYCQQYEFFGQGTKVQVDKTHTDKTHTQSVLTQPPSVSAAPGQKVTISCSGNTSNIGNNFVSWYQQRPGRAPQLLIYETDKRPSGIPDRFSASKSGTSGTLAITGLQTGDEADYYCATWAASLSSARVFGTGTQVIVLGQPKVNPTVTLFPPSSEELQANKATLVCLISDFYPGAVTVAWKADSSPVKAGVETTTPSKQSNNKYAASSYLSLTPEQWKSHRSYSCQVTHEGSTVEKTVAPTECS | 67% | 0%
CAP256V2LS (antibody, V domains shown) VH: QVQLVESGGGVVQPGTSLRLSCAASQFRFDGYGMHWVRQAPGKGLEWVASISHDGIKKYHAEKVWGRFTISRDNSKNTLYLQMNSLRPEDTALYYCAKDLREDECEEWWSDYYDFGAQLPCAKSRGGLVGIADNWGQGTMVTVSS VL: QSVLTQPPSVSAAPGQKVTISCSGNTSNIGNNFVSWYQQRPGRAPQLLIYETDKRPSGIPDRFSASKSGTSGTLAITGLQTGDEADYYCATWAASLSSARVFGTGTQVIVLG | 100% | 0%
CAP256V2LS-J3-4 (bispecific antibody) heavy chain: not shown light chain (J3 VHH, linker, CAP256V2LS LC): EVQLVESGGGLVQAGGFLRLSCELRGSIFNQYAMAWFRQAPGKEREFVAGMGAVPHYGEFVKGRFTISRDNAKSTVYLQMSSLKPEDTAIYFCARSKSTYISYNSNGYDYWGRGTQVTVSSDKTHTQSVLTQPPSVSAAPGQKVTISCSGNTSNIGNNFVSWYQQRPGRAPQLLIYETDKRPSGIPDRFSASKSGTSGTLAITGLQTGDEADYYCATWAASLSSARVFGTGTQVIVLGQPKVNPTVTLFPPSSEELQANKATLVCLISDFYPGAVTVAWKADSSPVKAGVETTTPSKQSNNKYAASSYLSLTPEQWKSHRSYSCQVTHEGSTVEKTVAPTECS | 100% | 86%
CAP256V2LS-10E8-1 (bispecific antibody) heavy chain: not shown light chain (10E8v4 scFv, linker, CAP256V2LS LC): EVRLVESGGGLVKPGGSLRLSCSASGFDFDNAWMTWVRQPPGKGLEWVGRITGPGEGWSVDYAESVKGRFTISRDNTKNTLYLEMNNVRTEDTGYYFCARTGKYYDFWSGYPPGEEYFQDWGQGTLVIVSSGGGGSGGGGSGGGGSSELTQDPAVSVALKQTVTITCRGDSLRSHYASWYQKKPGQAPVLLFYGKNNRPSGIPDRFSGSASGNRASLTITGAQAEDEADYYCSSRDKSGSRLSVFGGGTKLTVGGSGGQSVLTQPPSVSAAPGQKVTISCSGNTSNIGNNFVSWYQQRPGRAPQLLIYETDKRPSGIPDRFSASKSGTSGTLAITGLQTGDEADYYCATWAASLSSARVFGTGTQVIVLGQPKVNPTVTLFPPSSEELQANKATLVCLISDFYPGAVTVAWKADSSPVKAGVETTTPSKQSNNKYAASSYLSLTPEQWKSHRSYSCQVTHEGSTVEKTVAPTECS | 98% | 14%
CAP256V2LS-J3-6 (bispecific antibody) heavy chain: not shown light chain (J3 VHH, linker, CAP256V2LS LC): EVQLVESGGGLVQAGGFLRLSCELRGSIFNQYAMAWFRQAPGKEREFVAGMGAVPHYGEFVKGRFTISRDNAKSTVYLQMSSLKPEDTAIYFCARSKSTYISYNSNGYDYWGRGTQVTVSSDKTHTGDKTHTGDKTHTQSVLTQPPSVSAAPGQKVTISCSGNTSNIGNNFVSWYQQRPGRAPQLLIYETDKRPSGIPDRFSASKSGTSGTLAITGLQTGDEADYYCATWAASLSSARVFGTGTQVIVLGQPKVNPTVTLFPPSSEELQANKATLVCLISDFYPGAVTVAWKADSSPVKAGVETTTPSKQSNNKYAASSYLSLTPEQWKSHRSYSCQVTHEGSTVEKTVAPTECS | 100% | 48%
CAP256V2LS-VRC01-6 (bispecific antibody) heavy chain: not shown light chain (VRC01 scFv, linker, CAP256V2LS LC): QVQLVQSGGQMKKPGESMRISCRASGYEFIDCTLNWIRLAPGKRPEWMGWLKPRGGAVNYARPLQGRVTMTRDVYSDTAFLELRSLTVDDTAVYFCTRGKNCDYNWDFEHWGRGTPVIVSSGGGGSGGGGSGGGGSLTQSPGTLSLSPGETAIISCRTSQYGSLAWYQQRPGQAPRLVIYSGSTRAAGIPDRFSGSRWGPDYNLTISNLESGDFGVYYCQQYEFFGQGTKVQVDKTHTDKTHTDKTHTQSVLTQPPSVSAAPGQKVTISCSGNTSNIGNNFVSWYQQRPGRAPQLLIYETDKRPSGIPDRFSASKSGTSGTLAITGLQTGDEADYYCATWAASLSSARVFGTGTQVIVLGQPKVNPTVTLFPPSSEELQANKATLVCLISDFYPGAVTVAWKADSSPVKAGVETTTPSKQSNNKYAASSYLSLTPEQWKSHRSYSCQVTHEGSTVEKTVAPTECS | 98% | 0%
CAP256V2LS-10E8-2 (bispecific antibody) heavy chain: not shown light chain (10E8v4 scFv, linker, CAP256V2LS LC): EVRLVESGGGLVKPGGSLRLSCSASGFDFDNAWMTWVRQPPGKGLEWVGRITGPGEGWSVDYAESVKGRFTISRDNTKNTLYLEMNNVRTEDTGYYFCARTGKYYDFWSGYPPGEEYFQDWGQGTLVIVSSGGGGSGGGGSGGGGSSELTQDPAVSVALKQTVTITCRGDSLRSHYASWYQKKPGQAPVLLFYGKNNRPSGIPDRFSGSASGNRASLTITGAQAEDEADYYCSSRDKSGSRLSVFGGGTKLTVGGSGGGGSGGQSVLTQPPSVSAAPGQKVTISCSGNTSNIGNNFVSWYQQRPGRAPQLLIYETDKRPSGIPDRFSASKSGTSGTLAITGLQTGDEADYYCATWAASLSSARVFGTGTQVIVLGQPKVNPTVTLFPPSSEELQANKATLVCLISDFYPGAVTVAWKADSSPVKAGVETTTPSKQSNNKYAASSYLSLTPEQWKSHRSYSCQVTHEGSTVEKTVAPTECS | 91% | 45%
CAP256V2LS-J3-5 (bispecific antibody) heavy chain: not shown light chain (J3 VHH, linker, CAP256V2LS LC): EVQLVESGGGLVQAGGFLRLSCELRGSIFNQYAMAWFRQAPGKEREFVAGMGAVPHYGEFVKGRFTISRDNAKSTVYLQMSSLKPEDTAIYFCARSKSTYISYNSNGYDYWGRGTQVTVSSDKTHTGDKTHTQSVLTQPPSVSAAPGQKVTISCSGNTSNIGNNFVSWYQQRPGRAPQLLIYETDKRPSGIPDRFSASKSGTSGTLAITGLQTGDEADYYCATWAASLSSARVFGTGTQVIVLGQPKVNPTVTLFPPSSEELQANKATLVCLISDFYPGAVTVAWKADSSPVKAGVETTTPSKQSNNKYAASSYLSLTPEQWKSHRSYSCQVTHEGSTVEKTVAPTECS | 100% | 62%

Reference: patent US20250197482A1 (UNITED STATES OF AMERICA AS REPRESENTED BY THE SECRETARY …, published 2025)
